# From the RNAGym collection of RNA variant scans (doi:10.1093/nar/gkz1192)
# B1: CPEB3 Ribozyme (parent)
# chain: UAACAGGGGGCCACAGCAGAAGCGUUCACGUCGCAGCCCCUGUCAGAUUCUGGUGAAUCUGCGAAUUCUGCUGUAUAUCUC
# Variants of: B1
# Assay: self-cleavage, relative activity (ratio to wild type); higher = more cleavage; in vitro, sequencing
# Procedure, shortened: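 Relative activity compares each variant's cleaved/total read fraction with that of the unmutated ribozyme. To get these fractions, barcoded CPEB3 ribozyme libraries from rounds of error-prone PCR were transcribed with T7 RNA polymerase for 5 hours at 37°C and then given 15 min of DNase I treatment before EDTA was added. The RNAs were reverse transcribed with template switching and sequenced on Illumina, and DNA sequencing linked barcodes to variants. A minimum of 5 reads applied, and three batches were averaged.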
row,Variant,self-cleavage
1,UAACAGGGGGCCACAGCAGAAGCGUUCGCGUCGCAGCCCCUGUCAGAUUCUGGUGAAUCUGCGAAUUCUACUGUAUAUCUC,0.23
2,UAACAGGGGGCCACAGCAGAAGCGUUCGCGUCGCAGCCCCUGUCAGAUUCUGGUGAAUCUGCGAAUUCUGCUGUAGAUCUC,0.56
3,UAACAGGGGGCCACAGCAGAAGCGUUCGCGUCGCAGCCCCUGUCAGAUUCUGGUGAAUCUGCGAAUUCUGCUGUACAUCUC,0.67
4,UAACAGGGGGCCACAGCAGAAGCGUUCGCGUCGCAGCCCCUGUCAGAUUCUGGUGAAUCUGCGAAUUCUGCUGUAAAUCUC,0.61
5,UAACAGGGGGCCACAGCAGAAGCGUUCGCGUCGCAGCCCCGGUCAGAUUCUGGUGAAUCUGCGAAUUCUGCUGUAUAUCUC,0.15
6,UAACAGGGGGCCACAGCAGAAGCGUUCGCGUCGCAGCCCCCGUCAGAUUCUGGUGAAUCUGCGAAUUCUGCUGUAUAUCUC,0.6
7,UAACAGGGGGCCACAGCAGAAGCGUUCGCGUCGCAGCCCCAGUCAGAUUCUGGUGAAUCUGCGAAUUCUGCUGUAUAUCUC,0.27
8,UAACAGGGGGCCACAGCAGAAGCGUUCGCGUCGCAGCCCCUGUCAGAUUCUGGUGAAUCUGCGAAUUCUGCUGGAUAUCUC,1.08
9,UAACAGGGGGCCACAGCAGAAGCGUUCGCGUCGCAGCCCCUGUCAGAUUCUGGUGAAUCUGCGAAUUCUGCUGCAUAUCUC,1
10,UAACAGGGGGCCACAGCAGAAGCGUUCGCGUCGCAGCCCCUGUCAGAUUCUGGUGAAUCUGCGAAUUCUGCUGAAUAUCUC,1.06
11,UAACAGGGGGCCACAGCAGAAGCGUUCGCGUCGCAGCCCCUGUCAGAUUCUGGUGAAUCUGCGAAUUCGGCUGUAUAUCUC,0.48
12,UAACAGGGGGCCACAGCAGAAGCGUUCGCGUCGCAGCCCCUGUCAGAUUCUGGUGAAUCUGCGAAUUCAGCUGUAUAUCUC,0.29
13,UAACAGGGGGCCACAGCAGAAGCGUUCGCGUCGCAGCCCCUGUCAGAUUCUGGUGAAUCUGCGAAUUCCGCUGUAUAUCUC,0.25
14,UAACAGGGGGCCACAGCAGAAGCGUUCUCGUCGCAGCCCCUGUCAGAUUCUGGUGUAUCUGCGAAUUCUGCUGUAUAUCUC,0.57
15,UAACAGGGGGCCACAGCAGAAGCGUUCUCGUCGCAGCCCCUGUCAGAUUCUGGUGGAUCUGCGAAUUCUGCUGUAUAUCUC,0.53
16,UAACAGGGGGCCACAGCAGAAGCGUUCGCGACGCAGCCCCUGUCAGAUUCUGGUGAAUCUGCGAAUUCUGCUGUAUAUCUC,0.33
17,UAACAGGGGGCCACAGCAGAAGCGUUCGCGCCGCAGCCCCUGUCAGAUUCUGGUGAAUCUGCGAAUUCUGCUGUAUAUCUC,0.48

row,Variant,self-cleavage
1,UAACAGGGGGCCACAGCAGAAGCGUUCGCGGCGCAGCCCCUGUCAGAUUCUGGUGAAUCUGCGAAUUCUGCUGUAUAUCUC,0.25
2,UAACAGGGGGCCACAGCAGAAGCGUUCGCGUCGCAGCCCCUGUCAGAUUCGGGUGAAUCUGCGAAUUCUGCUGUAUAUCUC,0.45
3,UAACAGGGGGCCACAGCAGAAGCGUUCGCGUCGCAGCCCCUGUCAGAUUCAGGUGAAUCUGCGAAUUCUGCUGUAUAUCUC,0.63
4,UAACAGGGGGCCACAGCAGAAGCGUUCGCGUCGCAGCCCCUGUCAGAUUCCGGUGAAUCUGCGAAUUCUGCUGUAUAUCUC,0.62
5,UAACAGGGGGCCACAGCAGAAGCGUUCGCGUCGCAGCCCCUGUCAGAUUCUGGGGAAUCUGCGAAUUCUGCUGUAUAUCUC,0.41
6,UAACAGGGGGCCACAGCAGAAGCGUUCGCGUCGCAGCCCCUGUCAGAUUCUGGAGAAUCUGCGAAUUCUGCUGUAUAUCUC,0.6
7,UAACAGGGGGCCACAGCAGAAGCGUUCGCGUCGCAGCCCCUGUCAGAUUCUGGCGAAUCUGCGAAUUCUGCUGUAUAUCUC,0.58
8,UAACAGGGGGCCACAGCAGAAGCGUUCGCGUCGCAGCCCCUGUCAGACUCUGGUGAAUCUGCGAAUUCUGCUGUAUAUCUC,0.29
9,UAACAGGGGGCCACAGCAGAAGCGUUCGCGUCGCAGCCCCUGUCAGAGUCUGGUGAAUCUGCGAAUUCUGCUGUAUAUCUC,0.43
10,UAACAGGGGGCCACAGCAGAAGCGUUCGCGUCGCAGCCCCUGUCAGAAUCUGGUGAAUCUGCGAAUUCUGCUGUAUAUCUC,0.26
11,UAACAGGGGGCCACAGCAGAAGCGUUCGCGUCGCAGCCCCUGUCAGAUACUGGUGAAUCUGCGAAUUCUGCUGUAUAUCUC,0.31
12,UAACAGGGGGCCACAGCAGAAGCGUUCGCGUCGCAGCCCCUGUCAGAUCCUGGUGAAUCUGCGAAUUCUGCUGUAUAUCUC,0.22
13,UAACAGGGGGCCACAGCAGAAGCGUUCGCGUCGCAGCCCCUGUCAGAUUCUGGUGAAUCCGCGAAUUCUGCUGUAUAUCUC,0.25
14,UAACAGGGGGCCACAGCAGAAGCGUUCGCGUCGCAGCCCCUGUCAGAUUCUGGUGAAUCAGCGAAUUCUGCUGUAUAUCUC,0.32
15,UAACAGGGGGCCACAGCAGAAGCGUUCGCGUCGCAGCCCCUGUCAGAUUCUGGUGAAUCGGCGAAUUCUGCUGUAUAUCUC,0.16
16,UAACAGGGGGCCACAGCAGAAGCGUUCGCGUCGCAGCCCCUGGCAGAUUCUGGUGAAUCUGCGAAUUCUGCUGUAUAUCUC,0.17
17,UAACAGGGGGCCACAGCAGAAGCGUUCGCGUCGCAGCCCCUGACAGAUUCUGGUGAAUCUGCGAAUUCUGCUGUAUAUCUC,0.86
